These results are taken from patent publication US5521072.

Assay [1] concerns the target recombinant Actinobacillus pleuropneumoniae serotype 7 60 kDa transferrin binding protein (Actinobacillus pleuropneumoniae serotype 7 strain AP205). The assay can be described thus: competitive ELISA, 50% inhibition value, solid phase porcine transferrin. (In an ELISA, binding on a coated surface is turned into a signal by an enzyme label.)
Assay [2] shares this target. Briefly: competitive ELISA, 50% inhibition value; competitor preincubated with the recombinant 60 kDa protein, solid phase porcine transferrin.

For the substance “bovine apotransferrin (from UniProt Q29443) (ligand)”, the IC50 in assay [1] was above 1000 µg/mL.

In the case of “bovine transferrin, iron replete (from UniProt Q29443) (ligand)”, the IC50 in assay [1] was above 1000 µg/mL.

As for “human apotransferrin (from UniProt P02787) (ligand)”, the IC50 in assay [1] was above 1000 µg/mL.

For “human transferrin, iron replete (from UniProt P02787) (ligand)”, the IC50 in assay [1] was above 1000 µg/mL.

Take “porcine TF, NH2-terminus (from UniProt P09571) (ligand)”: the IC50 in assay [1] worked out at 20 µg/mL.

In the case of “porcine apotransferrin (from UniProt P09571) (ligand)”, the IC50 in assay [1] worked out at 150 µg/mL.

On to “porcine transferrin (TF), iron replete (from UniProt P09571) (ligand)”, for which the IC50 in assay [2] was found to be 25 µg/mL.

As a reminder, the IC50 is the concentration that inhibits the measured activity by half.
